Laboratory results as given in patent publication US20190256864A1 (INDIANA UNIVERSITY RESEARCH AND TECHNOLOGY, published 2019).

What was measured:
GmPBS1b = molecular target: T1, GmPBS1b
T1 chain: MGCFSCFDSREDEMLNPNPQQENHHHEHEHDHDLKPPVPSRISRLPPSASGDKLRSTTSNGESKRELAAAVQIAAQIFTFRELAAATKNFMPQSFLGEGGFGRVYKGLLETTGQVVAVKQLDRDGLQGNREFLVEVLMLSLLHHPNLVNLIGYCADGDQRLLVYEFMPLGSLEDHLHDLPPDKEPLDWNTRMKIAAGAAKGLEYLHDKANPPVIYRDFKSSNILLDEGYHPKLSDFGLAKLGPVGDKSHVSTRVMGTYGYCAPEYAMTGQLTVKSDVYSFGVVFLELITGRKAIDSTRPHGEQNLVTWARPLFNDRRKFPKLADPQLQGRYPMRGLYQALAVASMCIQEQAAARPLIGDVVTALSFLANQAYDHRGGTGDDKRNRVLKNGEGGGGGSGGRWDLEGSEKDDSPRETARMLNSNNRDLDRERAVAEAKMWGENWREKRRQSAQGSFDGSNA

GmPBS1a = molecular target: T2, GmPBS1a
T2 chain: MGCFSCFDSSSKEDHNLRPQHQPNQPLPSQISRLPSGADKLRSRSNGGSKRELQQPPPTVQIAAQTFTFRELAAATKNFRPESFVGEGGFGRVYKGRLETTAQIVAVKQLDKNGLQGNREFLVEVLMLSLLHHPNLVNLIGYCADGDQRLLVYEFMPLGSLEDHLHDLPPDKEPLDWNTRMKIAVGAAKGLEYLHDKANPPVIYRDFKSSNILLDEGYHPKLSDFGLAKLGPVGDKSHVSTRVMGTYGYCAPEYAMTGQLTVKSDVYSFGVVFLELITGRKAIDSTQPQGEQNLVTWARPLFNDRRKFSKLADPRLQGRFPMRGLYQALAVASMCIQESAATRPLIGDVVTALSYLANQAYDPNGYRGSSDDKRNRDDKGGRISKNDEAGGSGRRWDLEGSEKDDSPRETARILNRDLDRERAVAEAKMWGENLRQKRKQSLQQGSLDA

HvPBS1-1:HA = molecular target: T3, HvPBS1-1:HA
T3 chain: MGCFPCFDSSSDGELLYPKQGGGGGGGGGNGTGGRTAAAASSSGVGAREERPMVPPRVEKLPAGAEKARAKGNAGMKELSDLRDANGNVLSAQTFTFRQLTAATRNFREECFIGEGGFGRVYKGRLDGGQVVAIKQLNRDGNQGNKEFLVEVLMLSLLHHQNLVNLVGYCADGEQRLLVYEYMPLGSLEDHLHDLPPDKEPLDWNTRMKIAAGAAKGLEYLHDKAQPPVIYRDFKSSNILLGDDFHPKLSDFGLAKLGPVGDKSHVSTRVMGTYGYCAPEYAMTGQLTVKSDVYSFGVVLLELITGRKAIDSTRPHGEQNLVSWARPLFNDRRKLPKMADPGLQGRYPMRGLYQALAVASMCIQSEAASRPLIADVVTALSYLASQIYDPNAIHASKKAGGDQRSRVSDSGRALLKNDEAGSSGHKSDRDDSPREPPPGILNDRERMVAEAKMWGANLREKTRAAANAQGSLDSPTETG

GmPBS1c = molecular target: T4, GmPBS1c
T4 chain: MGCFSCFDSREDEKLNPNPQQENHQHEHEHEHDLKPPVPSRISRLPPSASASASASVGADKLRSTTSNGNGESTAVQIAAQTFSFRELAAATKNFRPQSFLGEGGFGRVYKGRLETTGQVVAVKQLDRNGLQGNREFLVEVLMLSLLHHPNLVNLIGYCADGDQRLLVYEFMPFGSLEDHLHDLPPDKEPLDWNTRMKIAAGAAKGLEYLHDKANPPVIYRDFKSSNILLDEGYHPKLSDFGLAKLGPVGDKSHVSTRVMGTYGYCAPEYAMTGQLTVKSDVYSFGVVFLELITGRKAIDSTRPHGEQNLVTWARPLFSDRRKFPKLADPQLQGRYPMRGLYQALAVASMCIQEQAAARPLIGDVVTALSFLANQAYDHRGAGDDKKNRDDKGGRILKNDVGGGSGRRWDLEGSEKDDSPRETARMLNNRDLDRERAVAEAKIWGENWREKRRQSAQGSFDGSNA

AtPBS1:HA = molecular target: T5, AtPBS1:HA
T5 chain: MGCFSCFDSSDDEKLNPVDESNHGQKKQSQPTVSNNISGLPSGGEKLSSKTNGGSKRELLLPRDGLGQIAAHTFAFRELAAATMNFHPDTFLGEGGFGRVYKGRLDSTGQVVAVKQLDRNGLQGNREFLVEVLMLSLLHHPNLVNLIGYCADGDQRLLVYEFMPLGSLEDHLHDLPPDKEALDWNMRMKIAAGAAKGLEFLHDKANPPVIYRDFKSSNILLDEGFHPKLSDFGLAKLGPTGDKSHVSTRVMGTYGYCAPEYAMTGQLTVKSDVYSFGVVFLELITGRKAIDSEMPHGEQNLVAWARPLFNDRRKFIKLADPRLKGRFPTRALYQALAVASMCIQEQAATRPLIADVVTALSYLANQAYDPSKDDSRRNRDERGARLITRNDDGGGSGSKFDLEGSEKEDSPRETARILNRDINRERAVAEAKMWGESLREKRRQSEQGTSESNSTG

HvPBS1-2:HA = molecular target: T6, HvPBS1-2:HA
T6 chain: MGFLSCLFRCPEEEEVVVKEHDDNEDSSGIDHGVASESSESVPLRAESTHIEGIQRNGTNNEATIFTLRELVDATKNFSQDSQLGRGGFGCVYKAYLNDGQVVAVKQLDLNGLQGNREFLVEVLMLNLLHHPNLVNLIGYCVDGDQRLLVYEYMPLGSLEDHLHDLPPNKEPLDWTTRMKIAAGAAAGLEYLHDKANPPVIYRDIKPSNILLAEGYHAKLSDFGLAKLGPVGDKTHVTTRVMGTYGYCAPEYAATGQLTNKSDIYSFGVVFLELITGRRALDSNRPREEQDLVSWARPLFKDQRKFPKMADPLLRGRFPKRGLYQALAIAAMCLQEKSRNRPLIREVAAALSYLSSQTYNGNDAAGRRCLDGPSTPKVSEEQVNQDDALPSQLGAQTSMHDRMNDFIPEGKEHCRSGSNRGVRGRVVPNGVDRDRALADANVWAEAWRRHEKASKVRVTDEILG

B1: AvrPphB:myc (protein)
chain: MKIGTQATSLAVLHNQESHAPQAPIAVRPEPAHAIPEIPLDLAIRPRTRGIHPFLAMTLGDKGCASSSGVSLEDDSHTQVSLSDFSVASRDVNHNNICAGLSTEWLVMSSDGDAESRMDHLDYNGEGQSRGSERHQVYNDALRAALSNDDEAPFFTASTAVIEDAGFSLRREPKTVHASGGSAQLGQTVAHDVAQSGRKHLLSLRFANVQGHAIACSCEGSQFKLFDPNLGEFQSSRSAAPQLIKGLIDHYNSLNYDVACVNEFRVS
GmPBS1b
  cleavage of the substrate: AvrPphB induces cleavage of all three soybean PBS1 proteins
NbPBS1:HA
  cleavage of the substrate (immunoblot after transient co-expression in N. benthamiana): Co-expression with AvrPphB:myc, but not the protease inactive mutant, resulted in cleavage of NbPBS1:HA within 6 hours post-transgene expression
GmPBS1a
  cleavage of the substrate: AvrPphB induces cleavage of all three soybean PBS1 proteins
HvPBS1-1:HA
  cleavage of the substrate (Western blot after transient co-expression in N. benthamiana): HvPBS1-1:HA and HvPBS1-2:HA are each cleaved by AvrPphB:myc
GmPBS1c
  cleavage of the substrate: AvrPphB induces cleavage of all three soybean PBS1 proteins
AtPBS1:HA
  cleavage of the substrate (immunoblot after co-expression in N. benthamiana): immunoblots showing cleavage of PBS1 proteins from Arabidopsis (At), soybean (Gm) and barley (Hv) by AvrPphB
HvPBS1-2:HA
  cleavage of the substrate (Western blot after transient co-expression in N. benthamiana): HvPBS1-1:HA and HvPBS1-2:HA are each cleaved by AvrPphB:myc
